The sequences below were run on Escherichia coli TOP10 (assay: shrunken log2 fold change of peptide-encoding DNA abundance (4.5 h post-induction vs induction); higher = less antimicrobial activity (less host growth inhibition)). Conditions: time post-induction: 4.5 h; library: site-saturation at positions 5, 18, 19, 20.
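Note: peptides expressed intracellularly from a pBAD plasmid library in pooled LB shake-flask culture, induced with 0.3% L-arabinose, DNA abundance read by NGS, three biological replicates, DESeq2 with apeglm shrinkage.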

First: RRIRPRPPRLPRPRPRPRSRPRP
Second: RRIRQRPPRLPRPRPRPKKQPRP
The “shrunken log2 fold change” value of the first is higher: 0.386 for the first, -0.286 for the second.

Going from RRIRWRPPRLPRPRPRPYLLPRP to RRIRNRPPRLPRPRPRPIMEPRP, the “shrunken log2 fold change” value rises from -0.508 to -0.139.

First: RRIRYRPPRLPRPRPRPMFKPRP
Second: RRIRIRPPRLPRPRPRPAADPRP
The “shrunken log2 fold change” value of the first is lower: -0.825 for the first, 0.0637 for the second.

Going from RRIRPRPPRLPRPRPRPSYNPRP to RRIRRRPPRLPRPRPRPKGFPRP, the “shrunken log2 fold change” value rises from -0.671 to -0.12.

RRIRNRPPRLPRPRPRPCRGPRP and RRIRDRPPRLPRPRPRPRVRPRP are within 0.2 log units of each other in “shrunken log2 fold change” value: -0.0345 for the first, 0.106 for the second.

Compared with RRIRPRPPRLPRPRPRPPDVPRP, RRIRYRPPRLPRPRPRPHSKPRP is lower in “shrunken log2 fold change” value: 0.274 for the first, -0.463 for the second.

First: RRIRFRPPRLPRPRPRPYNFPRP
Second: RRIRHRPPRLPRPRPRPQIQPRP
The “shrunken log2 fold change” value of the first is lower: -0.458 for the first, -0.0515 for the second.

First: RRIRYRPPRLPRPRPRPRTHPRP
Second: RRIRRRPPRLPRPRPRPWIQPRP
The “shrunken log2 fold change” value of the first is lower: -0.318 for the first, 0.0321 for the second.

Going from RRIRVRPPRLPRPRPRPTEQPRP to RRIRCRPPRLPRPRPRPEAHPRP, the “shrunken log2 fold change” value rises from 0.0304 to 0.38.

Compared with RRIRVRPPRLPRPRPRPSDSPRP, RRIRWRPPRLPRPRPRPKEWPRP is higher in “shrunken log2 fold change” value: -0.4 for the first, 0.00353 for the second.

Going from RRIRARPPRLPRPRPRPPVRPRP to RRIRPRPPRLPRPRPRPHNYPRP, the “shrunken log2 fold change” value falls from 0.609 to -0.631.

Compared with RRIRRRPPRLPRPRPRPPQHPRP, RRIRCRPPRLPRPRPRPPLNPRP is lower in “shrunken log2 fold change” value: 1.2 for the first, 0.212 for the second.

RRIRMRPPRLPRPRPRPPFEPRP and RRIRARPPRLPRPRPRPSRQPRP are within 0.2 log units of each other in “shrunken log2 fold change” value: 0.492 for the first, 0.373 for the second.

Compared with RRIRCRPPRLPRPRPRPYRHPRP, RRIRGRPPRLPRPRPRPNMFPRP is higher in “shrunken log2 fold change” value: -0.982 for the first, 0.351 for the second.

Going from RRIRLRPPRLPRPRPRPHWNPRP to RRIRLRPPRLPRPRPRPLPRPRP, the “shrunken log2 fold change” value rises from -0.315 to 0.475.

First: RRIRSRPPRLPRPRPRPIPFPRP
Second: RRIRGRPPRLPRPRPRPYCEPRP
The “shrunken log2 fold change” value of the first is lower: -0.518 for the first, 0.22 for the second.

RRIRPRPPRLPRPRPRPNYVPRP and RRIRERPPRLPRPRPRPDYNPRP are within 0.2 log units of each other in “shrunken log2 fold change” value: -0.352 for the first, -0.53 for the second.

Compared with RRIRIRPPRLPRPRPRPPEMPRP, RRIRSRPPRLPRPRPRPQWEPRP is higher in “shrunken log2 fold change” value: -0.291 for the first, 0.022 for the second.

Going from RRIRMRPPRLPRPRPRPTCMPRP to RRIRCRPPRLPRPRPRPFLFPRP, the “shrunken log2 fold change” value falls from 0.262 to -0.291.

Going from RRIRGRPPRLPRPRPRPIMRPRP to RRIRYRPPRLPRPRPRPTKCPRP, the “shrunken log2 fold change” value falls from 0.818 to -0.544.

RRIRDRPPRLPRPRPRPGECPRP and RRIRWRPPRLPRPRPRPNGHPRP are within 0.2 log units of each other in “shrunken log2 fold change” value: -0.0602 for the first, -0.0518 for the second.

Compared with RRIRQRPPRLPRPRPRPKRYPRP, RRIRHRPPRLPRPRPRPVPTPRP is higher in “shrunken log2 fold change” value: -0.138 for the first, 0.144 for the second.

Going from RRIRGRPPRLPRPRPRPMGVPRP to RRIRIRPPRLPRPRPRPTINPRP, the “shrunken log2 fold change” value falls from 0.00855 to -0.65.

First: RRIRWRPPRLPRPRPRPGCGPRP
Second: RRIRSRPPRLPRPRPRPCMKPRP
The “shrunken log2 fold change” value of the first is higher: 0.784 for the first, -1.6 for the second.

RRIRLRPPRLPRPRPRPHQHPRP and RRIRKRPPRLPRPRPRPQEWPRP are within 0.2 log units of each other in “shrunken log2 fold change” value: -0.109 for the first, -0.0193 for the second.

First: RRIRMRPPRLPRPRPRPCIGPRP
Second: RRIRRRPPRLPRPRPRPPCFPRP
The “shrunken log2 fold change” value of the first is lower: 0.0503 for the first, 0.741 for the second.

Going from RRIRPRPPRLPRPRPRPDMNPRP to RRIRVRPPRLPRPRPRPAHAPRP, the “shrunken log2 fold change” value rises from -0.268 to 0.068.

Going from RRIRCRPPRLPRPRPRPFVHPRP to RRIRYRPPRLPRPRPRPSLNPRP, the “shrunken log2 fold change” value rises from -0.891 to -0.646.

RRIRDRPPRLPRPRPRPIEFPRP and RRIRCRPPRLPRPRPRPDLRPRP are within 0.2 log units of each other in “shrunken log2 fold change” value: 0.144 for the first, -0.035 for the second.

First: RRIRCRPPRLPRPRPRPCIIPRP
Second: RRIRIRPPRLPRPRPRPPPYPRP
The “shrunken log2 fold change” value of the first is lower: -0.538 for the first, -0.177 for the second.
